According to publication PMC6237275 (Chemical science, 2013):

Target: His–CtBP2 (UniProt P56545 1-445)
Experiment: ELISA

B1: CP61 (cyclo-SGWTVVRMY) (peptide)
peptide: SGWTVVRMY
modifications: cyclic peptide (cyclo-SGWTVVRMY)
Question: With B1 as the binder, how does the IC50 read?
Answer: 19 ± 4 µM
